# Results published in patent publication US20200399389A1 (PHANES THERAPEUTICS, published 2020).
# Changes are numbered by the printed parent chain.
# T1: HIS-tagged human CD73 (huCD73-HIS) (human, UniProt P21589 27-547)
# T1 sequence: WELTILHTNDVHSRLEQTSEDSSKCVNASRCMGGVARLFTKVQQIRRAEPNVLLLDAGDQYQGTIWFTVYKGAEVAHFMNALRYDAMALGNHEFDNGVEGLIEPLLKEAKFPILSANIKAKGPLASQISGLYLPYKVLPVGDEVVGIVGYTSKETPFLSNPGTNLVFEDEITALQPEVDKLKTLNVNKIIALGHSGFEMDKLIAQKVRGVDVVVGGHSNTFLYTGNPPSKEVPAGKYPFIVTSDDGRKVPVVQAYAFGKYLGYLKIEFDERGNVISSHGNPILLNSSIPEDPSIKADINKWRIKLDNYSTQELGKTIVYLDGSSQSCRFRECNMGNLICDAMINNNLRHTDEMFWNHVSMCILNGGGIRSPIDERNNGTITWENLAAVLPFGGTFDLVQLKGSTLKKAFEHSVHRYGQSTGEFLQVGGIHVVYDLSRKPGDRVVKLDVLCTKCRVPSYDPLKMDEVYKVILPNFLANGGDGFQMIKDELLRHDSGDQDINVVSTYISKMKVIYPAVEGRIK
# T2: human CD73 expressed on the surface of cells (human, UniProt P21589 27-549)
# T2 sequence: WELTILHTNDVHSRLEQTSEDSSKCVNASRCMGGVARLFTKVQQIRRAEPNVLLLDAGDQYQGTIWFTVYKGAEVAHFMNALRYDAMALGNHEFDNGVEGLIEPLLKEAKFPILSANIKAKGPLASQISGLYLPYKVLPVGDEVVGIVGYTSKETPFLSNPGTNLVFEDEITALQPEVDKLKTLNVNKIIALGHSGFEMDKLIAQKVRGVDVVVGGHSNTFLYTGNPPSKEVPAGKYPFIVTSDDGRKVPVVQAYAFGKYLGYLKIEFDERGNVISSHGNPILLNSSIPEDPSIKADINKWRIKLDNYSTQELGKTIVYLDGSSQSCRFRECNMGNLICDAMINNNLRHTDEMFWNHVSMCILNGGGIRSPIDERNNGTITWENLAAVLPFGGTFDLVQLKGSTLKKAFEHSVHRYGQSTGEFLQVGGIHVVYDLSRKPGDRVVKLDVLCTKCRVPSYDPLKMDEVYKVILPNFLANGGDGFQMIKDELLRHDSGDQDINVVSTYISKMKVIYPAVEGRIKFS
# B1: 60A9-H1L1 (antibody, V domains shown)
# VH: EVQLVESGGGLVQPGQSLKLSCKASGYAFSSYWMNWVRQAPGKGLEWMGQIYPGDGDTYYNPSVKGRFTISADTSKNTAYLQLNNLRAEDTAVYYCAREAIYYGNYVFTYWGQGTLVTVSS
# VL: DIQMTQSPSLLSASLGDRVTITCKSSQSLLNSSNQKNYLAWYQQKPGQSPKLLIYFASTRDSGVPDRFSGSGSGTDFTLTISSLEPEDFATYYCQQHYSTPLTFGGGTKLEIK
# B2: 60A9-H3L3 (antibody, V domains shown)
# VH: B1 VH with M48I, F68A, I70L, T74K
# VL: B1 VL with I54V
# B3: 60A9-H2L3 (antibody, V domains shown)
# VH: B1 VH with Q16G, K19R, M48V, A79L, L83M, N85S
# VL: B1 VL with I54V
# B4: 60A9-H1L2 (antibody, V domains shown)
# VH: B1 VH
# VL: B1 VL with Q3V, L10S
# B5: 60A9-H4L3 (antibody, V domains shown)
# VH: B1 VH with M48I, N61S, P62G, F68A, I70L, T74K
# VL: B1 VL with I54V
# B6: 60A9-H2L1 (antibody, V domains shown)
# VH: B1 VH with Q16G, K19R, M48V, A79L, L83M, N85S
# VL: B1 VL
# B7: 60A9-H2L2 (antibody, V domains shown)
# VH: B1 VH with Q16G, K19R, M48V, A79L, L83M, N85S
# VL: B1 VL with Q3V, L10S
# B8: 60A9-H4L2 (antibody, V domains shown)
# VH: B1 VH with M48I, N61S, P62G, F68A, I70L, T74K
# VL: B1 VL with Q3V, L10S
# B9: 60A9-H1L3 (antibody, V domains shown)
# VH: B1 VH
# VL: B1 VL with I54V
# B10: 60A9-H4L1 (antibody, V domains shown)
# VH: B1 VH with M48I, N61S, P62G, F68A, I70L, T74K
# VL: B1 VL
# B11: 60A9-H3L1 (antibody, V domains shown)
# VH: B1 VH with M48I, F68A, I70L, T74K
# VL: B1 VL
# B12: 60A9-H3L2 (antibody, V domains shown)
# VH: B1 VH with M48I, F68A, I70L, T74K
# VL: B1 VL with Q3V, L10S
# B13: 39G8-H1L3 (antibody, V domains shown)
# VH: QVQLVQSGAEVKKPGASVKVSCKASGYTFTSYWMHWVRQAPGQGLEWIGEIDPSGGYTNYAQKFQGRSTLTVDKSISTAYMELSRLRSDDTAVYYCARNYYYGSSGTMDYWGQGTLVTVSS
# VL: DIVMTQSPDSLAVSLGERATMSCKSSQSLLNSSNQKNYLAWYQQKPGQPPKLLVYFASTRESGVPDRFSGSGSGTDFTLTISSLQAEDVAVYFCQQHYSTPYTFGGGTKVEIK
# B14: 39G8-H2L3 (antibody, V domains shown)
# VH: B13 VH with K74T
# VL: B13 VL
# B15: 39G8-H3L3 (antibody, V domains shown)
# VH: B13 VH with A61N
# VL: B13 VL
# B16: 60A9-H5L4 (antibody, V domains shown)
# VH: B1 VH with R38K, A40R, M48I, N61S, P62G, S63K, V64F, F68A, I70L, T74K
# VL: B1 VL with Q3V, T22S, I54V, Y93F, G106A
# B17: 60A9-H5L1 (antibody, V domains shown)
# VH: B1 VH with R38K, A40R, M48I, N61S, P62G, S63K, V64F, F68A, I70L, T74K
# VL: B1 VL
# B18: 60A9-H4L4 (antibody, V domains shown)
# VH: B1 VH with M48I, N61S, P62G, F68A, I70L, T74K
# VL: B1 VL with Q3V, T22S, I54V, Y93F, G106A
# B19: 60A9-H5L3 (antibody, V domains shown)
# VH: B1 VH with R38K, A40R, M48I, N61S, P62G, S63K, V64F, F68A, I70L, T74K
# VL: B1 VL with I54V
# B20: 60A9-H2L4 (antibody, V domains shown)
# VH: B1 VH with Q16G, K19R, M48V, A79L, L83M, N85S
# VL: B1 VL with Q3V, T22S, I54V, Y93F, G106A
# B21: 60A9-H3L4 (antibody, V domains shown)
# VH: B1 VH with M48I, F68A, I70L, T74K
# VL: B1 VL with Q3V, T22S, I54V, Y93F, G106A
# B22: 60A9-H5L2 (antibody, V domains shown)
# VH: B1 VH with R38K, A40R, M48I, N61S, P62G, S63K, V64F, F68A, I70L, T74K
# VL: B1 VL with Q3V, L10S
# Target: T1, HIS-tagged human CD73 (huCD73-HIS)
# Assay: cell-based or functional assay
row,"IC50 (nM), huCD73 enzymatic assay in solution [nM]",Binder
1,3.34,B1
2,2.09,B2
3,4.57,B3
4,6.17,B4
5,2.74,B5
6,4.13,B6
7,11.2,B7
8,4.97,B8
9,4.96,B9
10,3.1,B10
11,2.94,B11
12,4.97,B12

# Target: T2, human CD73 expressed on the surface of …
# Assay: cell-based or functional assay
row,"IC50 (nM), cell-based CD73 activity assay (A375 cells) [nM]",Binder
1,49.6,B13
2,66.3,B14
3,56.1,B15
4,30.1,B16
5,65.7,B2
6,61,B17
7,135,B18
8,36.4,B19
9,46,B20
10,134,B21
11,57.3,B22
